Data reported in patent US20160122739A1.

Legend:
Assay in all cases: cell-based or functional assay
[1] = target: human plasma-derived Factor IXa (human) (UniProt P00740)
[2] = target: recombinant human Factor IXa K126A (human) (UniProt P00740)
[3] = target: recombinant human Factor IXa K126A/K132A (human) (UniProt P00740)
[4] = target: recombinant human Factor IXa K126A/K132A/R150A (human) (UniProt P00740)
[5] = target: recombinant human Factor IXa K126A/R150A (human) (UniProt P00740)
[6] = target: recombinant human Factor IXa K132A (human) (UniProt P00740)
[7] = target: recombinant human Factor IXa K132A/R150A (human) (UniProt P00740)
[8] = target: recombinant human Factor IXa R150A (human) (UniProt P00740)
[9] = target: recombinant human Factor IXa wild-type (human) (UniProt P00740)

k2, inhibition of FIXa by ATIII/Fond (460 nM fondaparinux) [1]: 3520 M⁻¹ s⁻¹
k2, inhibition of FIXa by ATIII/UFH (0.24 U/mL) [1]: 3430 M⁻¹ s⁻¹
k2, inhibition of FIXa by ATIII/Fond (460 nM fondaparinux) [2]: 3300 M⁻¹ s⁻¹
k2, inhibition of FIXa by ATIII/UFH (0.24 U/mL) [2]: 1560 M⁻¹ s⁻¹
k2, inhibition of FIXa by ATIII/Fond (460 nM fondaparinux) [3]: 2640 M⁻¹ s⁻¹
k2, inhibition of FIXa by ATIII/UFH (0.24 U/mL) [3]: 423 M⁻¹ s⁻¹
k2, inhibition of FIXa by ATIII/Fond (460 nM fondaparinux) [4]: 68.3 M⁻¹ s⁻¹
k2, inhibition of FIXa by ATIII/UFH (0.24 U/mL) [4]: 6.67 M⁻¹ s⁻¹
k2, inhibition of FIXa by ATIII/Fond (460 nM fondaparinux) [5]: 63.3 M⁻¹ s⁻¹
k2, inhibition of FIXa by ATIII/Fond (460 nM fondaparinux) [6]: 3250 M⁻¹ s⁻¹
k2, inhibition of FIXa by ATIII/UFH (0.24 U/mL) [6]: 3740 M⁻¹ s⁻¹
k2, inhibition of FIXa by ATIII/Fond (460 nM fondaparinux) [7]: 68.3 M⁻¹ s⁻¹
k2, inhibition of FIXa by ATIII/Fond (460 nM fondaparinux) [8]: 71.7 M⁻¹ s⁻¹
k2, inhibition of FIXa by ATIII/UFH (0.24 U/mL) [8]: 262 M⁻¹ s⁻¹
k2, inhibition of FIXa by ATIII, no heparin [9]: 51.7 M⁻¹ s⁻¹
k2, inhibition of FIXa by ATIII/Fond (460 nM fondaparinux) [9]: 3290 M⁻¹ s⁻¹
k2, inhibition of FIXa by ATIII/UFH (0.24 U/mL) [9]: 4330 M⁻¹ s⁻¹
Substance: human plasma-derived antithrombin (from UniProt P01008 33-464)
